Article PMC2949298

Target: 21c Fab (human)
Assay: SPR

## CAP210_(V1V2) (core CAP210 gp120 containing the V1V2 loop) with sCD4 (complex)
  Kd: 92 nM
